According to the supplement of paper PMC9112550, “Optimization of the antimicrobial peptide Bac7 by deep mutational scanning” (BMC Biology, 2022):

Each sequence was assayed on Escherichia coli TOP10 (assay: shrunken log2 fold change of peptide-encoding DNA abundance (4.5 h post-induction vs induction); higher = less antimicrobial activity (less host growth inhibition)). Details: time post-induction: 4.5 h; library: site-saturation at positions 5, 18, 19, 20.
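Also: peptides expressed intracellularly from a pBAD plasmid library in pooled LB shake-flask culture, induced with 0.3% L-arabinose, DNA abundance read by NGS, three biological replicates, DESeq2 with apeglm shrinkage.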

In order of falling “shrunken log2 fold change” value:
1. RRIRARPPRLPRPRPRPPHLPRP  2.23
2. RRIRGRPPRLPRPRPRPEMWPRP  1.76
3. RRIRRRPPRLPRPRPRPPQYPRP  1.12
4. RRIRARPPRLPRPRPRPQGFPRP  0.807
5. RRIRMRPPRLPRPRPRPAMAPRP  0.778
6. RRIRWRPPRLPRPRPRPPPMPRP  0.72
7. RRIRKRPPRLPRPRPRPGWLPRP  0.593
8. RRIRARPPRLPRPRPRPPWEPRP  0.558
9. RRIRGRPPRLPRPRPRPFAKPRP  0.479
10. RRIRWRPPRLPRPRPRPSIPPRP  0.46
11. RRIRPRPPRLPRPRPRPNPNPRP  0.367
12. RRIRTRPPRLPRPRPRPTERPRP  0.36
13. RRIRWRPPRLPRPRPRPGDDPRP  0.351
14. RRIRMRPPRLPRPRPRPKLYPRP  0.256
15. RRIRTRPPRLPRPRPRPMWFPRP  0.253
16. RRIRDRPPRLPRPRPRPGWWPRP  0.227
17. RRIRVRPPRLPRPRPRPAVVPRP  0.213
18. RRIRWRPPRLPRPRPRPGPKPRP  0.21
19. RRIRRRPPRLPRPRPRPDMVPRP  0.206
20. RRIRQRPPRLPRPRPRPVGMPRP  0.18
21. RRIRGRPPRLPRPRPRPNKDPRP  0.179
22. RRIRRRPPRLPRPRPRPQFWPRP  0.172
23. RRIRPRPPRLPRPRPRPLRSPRP  0.167
24. RRIRPRPPRLPRPRPRPPAFPRP  0.166
25. RRIRQRPPRLPRPRPRPGFCPRP  0.159
26. RRIRMRPPRLPRPRPRPGFQPRP  0.151
27. RRIRLRPPRLPRPRPRPLQKPRP  0.141
28. RRIRTRPPRLPRPRPRPTHDPRP  0.139
29. RRIRTRPPRLPRPRPRPPCRPRP  0.121
30. RRIRFRPPRLPRPRPRPARFPRP  0.1
31. RRIRTRPPRLPRPRPRPTGRPRP  0.099
32. RRIRRRPPRLPRPRPRPPFTPRP  0.0961
33. RRIRTRPPRLPRPRPRPRKQPRP  0.0743
34. RRIRQRPPRLPRPRPRPTCKPRP  0.0706
35. RRIRRRPPRLPRPRPRPVFNPRP  0.056
36. RRIRPRPPRLPRPRPRPIDHPRP  0.0529
37. RRIRYRPPRLPRPRPRPFYGPRP  0.0392
38. RRIRLRPPRLPRPRPRPHKTPRP  0.0373
39. RRIRKRPPRLPRPRPRPYHDPRP  0.035
40. RRIRNRPPRLPRPRPRPDDTPRP  0.0119
41. RRIRNRPPRLPRPRPRPEDPPRP  0.00956
42. RRIRVRPPRLPRPRPRPQRCPRP  0.00942
43. RRIRRRPPRLPRPRPRPTSLPRP  0.0087
44. RRIRSRPPRLPRPRPRPFEKPRP  0.00827
45. RRIRYRPPRLPRPRPRPWKEPRP  -0.0075
46. RRIRPRPPRLPRPRPRPAIQPRP  -0.00944
47. RRIRWRPPRLPRPRPRPEHDPRP  -0.0282
48. RRIRFRPPRLPRPRPRPSTSPRP  -0.0297
49. RRIRIRPPRLPRPRPRPDCAPRP  -0.0601
50. RRIRIRPPRLPRPRPRPETRPRP  -0.0624
51. RRIRERPPRLPRPRPRPLHSPRP  -0.0649
52. RRIRQRPPRLPRPRPRPLVFPRP  -0.0658
53. RRIRTRPPRLPRPRPRPYQPPRP  -0.0681
54. RRIRPRPPRLPRPRPRPMHIPRP  -0.105
55. RRIRIRPPRLPRPRPRPVGKPRP  -0.118
56. RRIRVRPPRLPRPRPRPPSEPRP  -0.124
57. RRIRNRPPRLPRPRPRPAISPRP  -0.128
58. RRIRHRPPRLPRPRPRPELMPRP  -0.141
59. RRIRHRPPRLPRPRPRPGNHPRP  -0.161
60. RRIRCRPPRLPRPRPRPVCLPRP  -0.168
61. RRIRCRPPRLPRPRPRPKGHPRP  -0.17
62. RRIRTRPPRLPRPRPRPWSGPRP  -0.187
63. RRIRKRPPRLPRPRPRPDKEPRP  -0.2
64. RRIRYRPPRLPRPRPRPILDPRP  -0.253
65. RRIRYRPPRLPRPRPRPQQHPRP  -0.278
66. RRIRSRPPRLPRPRPRPFCPPRP  -0.31
67. RRIRHRPPRLPRPRPRPGNEPRP  -0.364
68. RRIRGRPPRLPRPRPRPCREPRP  -0.368
69. RRIRVRPPRLPRPRPRPDHMPRP  -0.384
70. RRIRDRPPRLPRPRPRPQKYPRP  -0.432
71. RRIRCRPPRLPRPRPRPMNMPRP  -0.445
72. RRIRRRPPRLPRPRPRPFYQPRP  -0.46
73. RRIRYRPPRLPRPRPRPFTQPRP  -0.646
74. RRIRCRPPRLPRPRPRPHEAPRP  -0.65
75. RRIRIRPPRLPRPRPRPSYWPRP  -0.781
